Consider one protein from patent publication US20240376166A1 (BOSTON MEDICAL CENTER, published 2024).

This data set concerns the molecule itself. Description: native gel of lysates from non-stressed cells (self-association; cells also hold endogenous NPM); FIG. 5B.

B1: flag-tagged NPM normal mimic (T86A-S88A-T95A-T234E-S242E) (other)
chain: MEDSMDMDMSPLRPQNYLFGCELKADKDYHFKVDNDENEHQLSLRTVSLGAGAKDELHIVEAEAMNYEGSPIKVTLATLKMSVQPAVALGGFEIAPPVVLRLKCGSGPVHISGQHLVAVEEDAESEDEEEEDVKLLSISGKRSAPGGGSKVPQKKVKLAADEDDDDDDEEDDDEDDDDDDFDDEEAEEKAPVKKSIRDTPAKNAQKSNQNGKDSKPSSTPRSKGQESFKKQEKEPKTPKGPESVEDIKAKMQASIEKGGSLPKVEAKFINYVKNCFRMTDQEAIQDLWQWRKSL
notes: Lentiviral expression in primary PTEC; also called normal mimic NPM; NrNPM; not shown: amino-terminal flag tag
As to B1, the binding result is “binds”.
